The text below walks through data of patent US20160243521A1.

For assay [1], the target named is human polyclonal IgG (Gamma-globulin NICHIYAKU, NIHON PHARMACEUTICAL CO., LTD.) (human). Briefly: column dynamic binding capacity at 5% breakthrough, residence time 3 min (Test example 2); Protein A 35 g/L on cellulose beads made with crosslinking agent EX-314.
For assay [2] the target is unchanged. Description: column dynamic binding capacity at 5% breakthrough, residence time 3 min (Test example 2); Protein A 35 g/L on cellulose beads made without crosslinking agent in the dispersion.

As to “non-orientation-controlled Protein A (from UniProt P38507 37-327) (ligand)”, the 5% DBC at RT of 3 min (g per 1 L of the filling adsorbent) was determined as 65 in assay [1] and 49 in assay [2].
